Data from the supplement of paper PMC11246515.
± gives the standard deviation of the averaged measurements.

Assay: total protein half-life in vivo (active degradation + dilution); higher = more stable protein
[1] = E. coli NCM3722 delta-clpP delta-lon delta-hslV, growth: N-lim chemostat, doubling time 6 h
[2] = E. coli NCM3722 delta-clpP, growth: N-lim chemostat, doubling time 6 h
[3] = E. coli NCM3722 delta-hslV, growth: N-lim chemostat, doubling time 6 h
[4] = E. coli NCM3722 delta-lon, growth: N-lim chemostat, doubling time 6 h
[5] = E. coli NCM3722 delta-smpB, growth: N-lim chemostat, doubling time 6 h
[6] = wild type E. coli NCM3722, growth: C-lim chemostat, doubling time 3 h
[7] = wild type E. coli NCM3722, growth: C-lim chemostat, doubling time 6 h
[8] = wild type E. coli NCM3722, growth: C-lim chemostat, doubling time 12 h
[9] = wild type E. coli NCM3722, growth: N-lim chemostat, doubling time 6 h
[10] = wild type E. coli NCM3722, growth: N-lim chemostat, doubling time 12 h
[11] = wild type E. coli NCM3722, growth: P-lim chemostat, doubling time 6 h
[12] = wild type E. coli NCM3722, growth: P-lim chemostat, doubling time 12 h

Sequence | total protein half-life in vivo [1] [h] | total protein half-life in vivo [2] [h] | total protein half-life in vivo [3] [h] | total protein half-life in vivo [4] [h] | total protein half-life in vivo [5] [h] | total protein half-life in vivo [6] [h] | total protein half-life in vivo [7] [h] | total protein half-life in vivo [8] [h] | total protein half-life in vivo [9] [h] | total protein half-life in vivo [10] [h] | total protein half-life in vivo [11] [h] | total protein half-life in vivo [12] [h]
MDQTYSLESFLNHVQKRDPNQTEFAQAVREVMTTLWPFLEQNPKYRQMSLLERLVEPERVIQFRVVWVDDRNQIQVNRAWRVQFSSAIGPYKGGMRFHPSVNLSILKFLGFEQTFKNALTTLPMGGGKGGSDFDPKGKSEGEVMRFCQALMTELYRHLGADTDVPAGDIGVGGREVGFMAGMMKKLSNNTACVFTGKGLSFGGSLIRPEATGYGLVYFTEAMLKRHGMGFEGMRVSVSGSGNVAQYAIEKAMEFGARVITASDSSGTVVDESGFTKEKLARLIEIKASRDGRVADYAKEFGLVYLEGQQPWSLPVDIALPCATQNELDVDAAHQLIANGVKAVAEGANMPTTIEATELFQQAGVLFAPGKAANAGGVATSGLEMAQNAARLGWKAEKVDARLHHIMLDIHHACVEHGGEGEQTNYVQGANIAGFVKVADAMLAQGVI | 3.53 ± 0.36 | 1.97 ± 0.1 | 1.8 ± 0.11 | 2.13 ± 0.14 | 2.14 ± 0.08 | 2.94 ± 0.19 | 4.66 ± 0.28 | 7.29 ± 0.52 | 1.88 ± 0.073 | 2.61 ± 0.4 | 5.35 ± 0.14 | 9.48 ± 0.6
MDRIIQSPGKYIQGADVINRLGEYLKPLAERWLVVGDKFVLGFAQSTVEKSFKDAGLVVEIAPFGGECSQNEIDRLRGIAETAQCGAILGIGGGKTLDTAKALAHFMGVPVAIAPTIASTDAPCSALSVIYTDEGEFDRYLLLPNNPNMVIVDTKIVAGAPARLLAAGIGDALATWFEARACSRSGATTMAGGKCTQAALALAELCYNTLLEEGEKAMLAAEQHVVTPALERVIEANTYLSGVGFESGGLAAAHAVHNGLTAIPDAHHYYHGEKVAFGTLTQLVLENAPVEEIETVAALSHAVGLPITLAQLDIKEDVPAKMRIVAEAACAEGETIHNMPGGATPDQVYAALLVADQYGQRFLQEWE [P0A9S5] | 4.72 ± 0.17 | 4.2 ± 0.78 | 4.13 ± 0.15 | 4.432 ± 0.034 | 3.52 ± 0.49 | 3.07 ± 0.084 | 5.75 ± 0.4 | 11.7 ± 0.7 | 4.8 ± 0.91 | 6.5 ± 0.44 | 6.33 ± 0.13 | 13 ± 0.35
MDRVLHFVLALAVVAILALLVSSDRKKIRIRYVIQLLVIEVLLAWFFLNSDVGLGFVKGFSEMFEKLLGFANEGTNFVFGSMNDQGLAFFFLKVLCPIVFISALIGILQHIRVLPVIIRAIGFLLSKVNGMGKLESFNAVSSLILGQSENFIAYKDILGKISRNRMYTMAATAMSTVSMSIVGAYMTMLEPKYVVAALVLNMFSTFIVLSLINPYRVDASEENIQMSNLHEGQSFFEMLGEYILAGFKVAIIVAAMLIGFIALIAALNALFATVTGWFGYSISFQGILGYIFYPIAWVMGVPSSEALQVGSIMATKLVSNEFVAMMDLQKIASTLSPRAEGIISVFLVSFANFSSIGIIAGAVKGLNEEQGNVVSRFGLKLVYGSTLVSVLSASIAALVL [P0AFF2] | 7.07 ± 0.54 | 6.45 ± 0.078 | 6.09 ± 0.15 | 5.82 ± 0.35 | 6.04 ± 0.57 | 3.61 ± 0.038 | 6.32 ± 0.029 | – | 6.36 ± 0.65 | 9.54 ± 3.4 | 5.57 | 13 ± 0.8
MDSIHGHEVLNMMIESGEQYTHASLEAAIKARFGEQARFHTCSAEGMTAGELVAFLAAKGKFIPSKDGFSTDQSKICRH | – | – | – | – | – | – | 5.53 | – | – | – | – | –
MDSLNLNKHISGQFNAELESIRTQVMTMGGMVEQQLSDAITAMHNQDSDLAKRVIEGDKNVNMMEVAIDEACVRIIAKRQPTASDLRLVMVISKTIAELERIGDVADKICRTALEKFSQQHQPLLVSLESLGRHTIQMLHDVLDAFARMDIDEAVRIYREDKKVDQEYEGIVRQLMTYMMEDSRTIPSVLTALFCARSIERIGDRCQNICEFIFYYVKGQDFRHVGGDELDKLLAGKDSDK [P0A9K7] | 4.61 ± 0.4 | 4.64 ± 0.5 | 4.2 ± 0.34 | 4.81 ± 0.26 | 4.01 ± 0.1 | 2.88 ± 0.12 | 5.04 ± 0.29 | 9.47 ± 0.65 | 4.09 ± 0.23 | 6.41 ± 0.26 | 5.17 ± 0.13 | 10.8 ± 0.029
MDSQRNLLVIALLFVSFMIWQAWEQDKNPQPQAQQTTQTTTTAAGSAADQGVPASGQGKLISVKTDVLDLTINTRGGDVEQALLPAYPKELNSTQPFQLLETSPQFIYQAQSGLTGRDGPDNPANGPRPLYNVEKDAYVLAEGQNELQVPMTYTDAAGNTFTKTFVLKRGDYAVNVNYNVQNAGEKPLEISSFGQLKQSITLPPHLDTGSSNFALHTFRGAAYSTPDEKYEKYKFDTIADNENLNISSKGGWVAMLQQYFATAWIPHNDGTNNFYTANLGNGIAAIGYKSQPVLVQPGQTGAMNSTLWVGPEIQDKMAAVAPHLDLTVDYGWLWFISQPLFKLLKWIHSFVGNWGFSIIIITFIVRGIMYPLTKAQYTSMAKMRMLQPKIQAMRERLGDDKQRISQEMMALYKAEKVNPLGGCFPLLIQMPIFLALYYMLMGSVELRQAPFALWIHDLSAQDPYYILPILMGVTMFFIQKMSPTTVTDPMQQKIMTFMPVIFTVFFLWFPSGLVLYYIVSNLVTIIQQQLIYRGLEKRGLHSREKKKS | 6.9 ± 1.3 | 6.01 ± 0.51 | 6.03 ± 0.043 | 6.29 ± 0.36 | 6.08 ± 0.42 | 3.2 ± 0.74 | 6.37 ± 1.8 | – | 6.08 ± 0.64 | 12.2 ± 0.55 | 6.66 ± 0.93 | 12.6 ± 0.7
MDTSLAEEVQQTMATLAPNRFFFMSPYRSFTTSGCFARFDEPAVNGDSPDSPFQQKLAALFADAKAQGIKNPVMVGAIPFDPRQPSSLYIPESWQSFSRQEKQASARRFTRSQSLNVVERQAIPEQTTFEQMVARAAALTATPQVDKVVLSRLIDITTDAAIDSGVLLERLIAQNPVSYNFHVPLADGGVLLGASPELLLRKDGERFSSIPLAGSARRQPDEVLDREAGNRLLASEKDRHEHELVTQAMKEVLRERSSELHVPSSPQLITTPTLWHLATPFEGKANSQENALTLACLLHPTPALSGFPHQAATQVIAELEPFDRELFGGIVGWCDSEGNGEWVVTIRCAKLRENQVRLFAGAGIVPASSPLGEWRETGVKLSTMLNVFGLH [P0AEJ2] | – | – | – | – | – | 2.43 | 2.54 | – | – | – | – | –
MDVTAKYELIGLMAYPIRHSLSPEMQNKALEKAGLPFTYMAFEVDNDSFPGAIEGLKALKMRGTGVSMPNKQLACEYVDELTPAAKLVGAINTIVNDDGYLRGYNTDGTGHIRAIKESGFDIKGKTMVLLGAGGASTAIGAQGAIEGLKEIKLFNRRDEFFDKALAFAQRVNENTDCVVTVTDLADQQAFAEALASADILTNGTKVGMKPLENESLVNDISLLHPGLLVTECVYNPHMTKLLQQAQQAGCKTIDGYGMLLWQGAEQFTLWTGKDFPLEYVKQVMGFGA [P0A6D5] | 4.77 | – | – | – | – | – | – | – | – | – | – | –
MDWLLDVFATWLYGLKVIAITLAVIMFISGLDDFFIDVVYWVRRIKRKLSVYRRYPRMSYRELYKPDEKPLAIMVPAWNETGVIGNMAELAATTLDYENYHIFVGTYPNDPDTQRDVDEVCARFPNVHKVVCARPGPTSKADCLNNVLDAITQFERSANFAFAGFILHDAEDVISPMELRLFNYLVERKDLIQIPVYPFEREWTHFTSMTYIDEFSELHGKDVPVREALAGQVPSAGVGTCFSRRAVTALLADGDGIAFDVQSLTEDYDIGFRLKEKGMTEIFVRFPVVDEAKEREQRKFLQHARTSNMICVREYFPDTFSTAVRQKSRWIIGIVFQGFKTHKWTSSLTLNYFLWRDRKGAISNFVSFLAMLVMIQLLLLLAYESLWPDAWHFLSIFSGSAWLMTLLWLNFGLMVNRIVQRVIFVTGYYGLTQGLLSVLRLFWGNLINFMANWRALKQVLQHGDPRRVAWDKTTHDFPSVTGDTRSLRPLGQILLENQVITEEQLDTALRNRVEGLRLGGSMLMQGLISAEQLAQALAEQNGVAWESIDAWQIPSSLIAEMPASVALHYAVLPLRLENDELIVGSEDGIDPVSLAALTRKVGRKVRYVIVLRGQIVTGLRHWYARRRGHDPRAMLYNAVQHQWLTEQQAGEIWRQYVPHQFLFAEILTTLGHINRSAINVLLLRHERSSLPLGKFLVTEGVISQETLDRVLTIQRELQVSMQSLLLKAGLNTEQVAQLESENEGE [P0AFA5] | 4.66 ± 1.7 | – | – | – | – | – | – | – | – | 9.6 ± 6.5 | – | –
